Test results: the supplement of paper PMC9732359
± gives the uncertainty stated by the source.

Experiment: protein stability index of a GFP-peptide fusion (yeast GPS) (PSI 1-4); higher = more stable; sorted into four equal gates, so the index is relative within each strain
Procedure, shortened: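 Plasmids in a pooled yeast library fused tiled 17-residue yeast protein peptides downstream of GFP and also expressed Cherry. Mid-log cultures grown without leucine were sorted into four equal gates by GFP/Cherry fluorescence ratio. Each gate's plasmids were PCR-amplified and Illumina-sequenced, and reads were matched to strains by barcodes. The protein stability index is derived by multiplying each gate's read frequency by its gate number and summing the results.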

## LKLCLGDHSSVPVALKG [YMR129W/POM152]
doa10∆
  protein stability index: 2.79 ± 0.086
pdr5∆
  protein stability index: 2.91 ± 0.06
san1∆
  protein stability index: 2.74 ± 0.1
ubr1∆
  protein stability index: 3 ± 0.048

## EKRATSPLLESDSIEKI [PUP2]
doa10∆
  protein stability index: 3.12 ± 0.087
pdr5∆
  protein stability index: 3.07 ± 0.077
san1∆
  protein stability index: 3.29 ± 0.09
ubr1∆
  protein stability index: 3.23 ± 0.068

## KLQSQSLHTKNVFGTLQ [YLR018C/POM34]
doa10∆
  protein stability index: 2.87 ± 0.12
pdr5∆
  protein stability index: 2.82 ± 0.12
san1∆
  protein stability index: 2.29 ± 0.26
ubr1∆
  protein stability index: 2.94 ± 0.11

## GVKNNLLTPKSGEPIIA [RPO31]
ubr1∆
  protein stability index: 2.62 ± 0.22

## FASIPVSNSISRLGEEN [SNU114]
doa10∆
  protein stability index: 2.31 ± 0.058
pdr5∆
  protein stability index: 2.63 ± 0.051
san1∆
  protein stability index: 1.81 ± 0.081
ubr1∆
  protein stability index: 2.48 ± 0.059

## KNSTSSMTAVPKPLKFL [RPN1]
doa10∆
  protein stability index: 2.03 ± 0.071
pdr5∆
  protein stability index: 2.31 ± 0.072
san1∆
  protein stability index: 1.98 ± 0.062
ubr1∆
  protein stability index: 2.15 ± 0.069

## SKDGLPNKVKTEDIRIR [RRP6]
doa10∆
  protein stability index: 2.67 ± 0.063
pdr5∆
  protein stability index: 2.91 ± 0.076
san1∆
  protein stability index: 2.76 ± 0.067
ubr1∆
  protein stability index: 2.73 ± 0.046

## KNLKDTASVEKAEFSKE [YIL149C/MLP2]
doa10∆
  protein stability index: 3.07 ± 0.083
pdr5∆
  protein stability index: 3.19 ± 0.091
san1∆
  protein stability index: 3.09 ± 0.1
ubr1∆
  protein stability index: 3.24 ± 0.081

## NRDPVKHAEFDLSLLGY [SIR2]
pdr5∆
  protein stability index: 2.75 ± 0.21

## VTLVNGKRRMNPGPSVQ [RPS30A]
doa10∆
  protein stability index: 2.69 ± 0.049
pdr5∆
  protein stability index: 2.94 ± 0.031
san1∆
  protein stability index: 2.81 ± 0.047
ubr1∆
  protein stability index: 2.87 ± 0.033

## FGPIKVELPTKETVEIG [FAS1]
doa10∆
  protein stability index: 3.01 ± 0.084
pdr5∆
  protein stability index: 3.28 ± 0.07
san1∆
  protein stability index: 3.23 ± 0.067
ubr1∆
  protein stability index: 3.02 ± 0.066

## EPIRFLPNQFPLKIHRT [SWI1]
doa10∆
  protein stability index: 1.66 ± 0.06
pdr5∆
  protein stability index: 1.81 ± 0.075
san1∆
  protein stability index: 1.59 ± 0.12
ubr1∆
  protein stability index: 1.73 ± 0.07

## KLEPKEIVRDILHTKES [SIR4]
doa10∆
  protein stability index: 2.92 ± 0.1
pdr5∆
  protein stability index: 3.1 ± 0.14
san1∆
  protein stability index: 2.5 ± 0.18
ubr1∆
  protein stability index: 3.04 ± 0.086

## DEPDEQGNPKKRPGKLS [CYT1]
pdr5∆
  protein stability index: 3.45 ± 0.15
san1∆
  protein stability index: 3.24 ± 0.16
ubr1∆
  protein stability index: 3.44 ± 0.089

## ALFFDPSLNPIPHFIDN [PRP8]
doa10∆
  protein stability index: 2.64 ± 0.058
pdr5∆
  protein stability index: 2.77 ± 0.047
san1∆
  protein stability index: 2.47 ± 0.057
ubr1∆
  protein stability index: 2.61 ± 0.04

## VGKRVRYLVGGNKIQKV [RPS7A]
doa10∆
  protein stability index: 1.25 ± 0.084
pdr5∆
  protein stability index: 1.98 ± 0.18
san1∆
  protein stability index: 1.49 ± 0.26
ubr1∆
  protein stability index: 1.7 ± 0.17

## YEKAQKDLENAQVEMKS [SMC1]
doa10∆
  protein stability index: 3.11 ± 0.11
pdr5∆
  protein stability index: 3.29 ± 0.084
san1∆
  protein stability index: 3.31 ± 0.052
ubr1∆
  protein stability index: 3.3 ± 0.08

## WIKFLLHTLYLRPASAI [SSN8]
doa10∆
  protein stability index: 1.74 ± 0.045
pdr5∆
  protein stability index: 1.29 ± 0.035
san1∆
  protein stability index: 1.25 ± 0.068
ubr1∆
  protein stability index: 1.15 ± 0.038

## DQLEDLREHFKNTEEGK [QCR6]
doa10∆
  protein stability index: 2.75 ± 0.27
pdr5∆
  protein stability index: 3.51 ± 0.14
san1∆
  protein stability index: 3.36 ± 0.072

## IRKQPDDIINNDEPSHK [SIR2]
doa10∆
  protein stability index: 2.91 ± 0.065
pdr5∆
  protein stability index: 2.95 ± 0.039
san1∆
  protein stability index: 2.94 ± 0.04
ubr1∆
  protein stability index: 2.83 ± 0.039

## LKNMLYVLSTAVEFESV [BRR2]
doa10∆
  protein stability index: 1.77 ± 0.038
pdr5∆
  protein stability index: 1.58 ± 0.037
san1∆
  protein stability index: 1.88 ± 0.081
ubr1∆
  protein stability index: 1.42 ± 0.032

## LQKEKELHKEGTISKLE [SMC2]
doa10∆
  protein stability index: 2.89 ± 0.075
pdr5∆
  protein stability index: 3.08 ± 0.08
san1∆
  protein stability index: 1.83 ± 0.06
ubr1∆
  protein stability index: 2.5 ± 0.05

## CKEVGITAVHVKIRATG [RPS14A]
doa10∆
  protein stability index: 1.93 ± 0.043
pdr5∆
  protein stability index: 1.82 ± 0.039
san1∆
  protein stability index: 1.81 ± 0.085
ubr1∆
  protein stability index: 1.89 ± 0.035

## IGDDGYDLLISTLTTIS [SRB5]
doa10∆
  protein stability index: 2.18 ± 0.054
pdr5∆
  protein stability index: 2.1 ± 0.058
san1∆
  protein stability index: 1.52 ± 0.085
ubr1∆
  protein stability index: 2.2 ± 0.061

## TKLTTCKRELAFVKQKN [YIL149C/MLP2]
doa10∆
  protein stability index: 1.84 ± 0.078
pdr5∆
  protein stability index: 1.81 ± 0.086
san1∆
  protein stability index: 1.54 ± 0.11
ubr1∆
  protein stability index: 1.48 ± 0.071

## ARHKKKVENLDYMYENG [YML031W/NDC1]
doa10∆
  protein stability index: 3.41 ± 0.15
pdr5∆
  protein stability index: 3.37 ± 0.14
san1∆
  protein stability index: 3.08 ± 0.12

## PLQSMDIEQLEYSRDCF [RPB3]
doa10∆
  protein stability index: 3.16 ± 0.074
pdr5∆
  protein stability index: 3.17 ± 0.068
san1∆
  protein stability index: 3.21 ± 0.08
ubr1∆
  protein stability index: 2.93 ± 0.11

## PHIQKMLSILEIFKKGY [POP6]
doa10∆
  protein stability index: 2.42 ± 0.11
pdr5∆
  protein stability index: 2.73 ± 0.099
san1∆
  protein stability index: 3.1 ± 0.091
ubr1∆
  protein stability index: 2.54 ± 0.066

## QKTRVKLLFDHDELDMN [ESC2]
doa10∆
  protein stability index: 2.87 ± 0.16
pdr5∆
  protein stability index: 3.36 ± 0.12
san1∆
  protein stability index: 3.02 ± 0.076
ubr1∆
  protein stability index: 3.12 ± 0.093

## RSRKTVKAQRPITGASL [RPL24A]
doa10∆
  protein stability index: 3.34 ± 0.077
pdr5∆
  protein stability index: 3.22 ± 0.11
san1∆
  protein stability index: 3.14 ± 0.12
ubr1∆
  protein stability index: 3.24 ± 0.088

## IEIKISDPLTVFSESCS [SNU114]
doa10∆
  protein stability index: 2.33 ± 0.071
pdr5∆
  protein stability index: 2.55 ± 0.073
san1∆
  protein stability index: 2.42 ± 0.052
ubr1∆
  protein stability index: 2.45 ± 0.06

## SNPQHIIQPFLDNSKMD [RGR1]
doa10∆
  protein stability index: 2.91 ± 0.062
pdr5∆
  protein stability index: 2.98 ± 0.075
san1∆
  protein stability index: 2.53 ± 0.077
ubr1∆
  protein stability index: 2.86 ± 0.034

## ISLSFSRPASYGYFSVG [SIR4]
doa10∆
  protein stability index: 1.78 ± 0.073
pdr5∆
  protein stability index: 1.82 ± 0.06
san1∆
  protein stability index: 1.81 ± 0.11
ubr1∆
  protein stability index: 2.07 ± 0.052

## AEQLKISLSVHTLALEF [RRP46]
doa10∆
  protein stability index: 2.1 ± 0.058
pdr5∆
  protein stability index: 2.29 ± 0.044
san1∆
  protein stability index: 2.37 ± 0.063
ubr1∆
  protein stability index: 2.25 ± 0.048

## ERVQSDENKDDELVKLL [SRP68]
doa10∆
  protein stability index: 3.52 ± 0.17
pdr5∆
  protein stability index: 3.42 ± 0.12
ubr1∆
  protein stability index: 2.96 ± 0.23

## LFMKSLIENCKKRNMPL [SWI1]
doa10∆
  protein stability index: 2.68 ± 0.053
pdr5∆
  protein stability index: 2.72 ± 0.068
san1∆
  protein stability index: 2.83 ± 0.045
ubr1∆
  protein stability index: 2.82 ± 0.042

## ADTGRDDTKETVYISSI [RPN11]
doa10∆
  protein stability index: 3.12 ± 0.09
pdr5∆
  protein stability index: 3.28 ± 0.1
san1∆
  protein stability index: 3.01 ± 0.073
ubr1∆
  protein stability index: 3.16 ± 0.053

## PVKVSGTIKKIEQFAMR [POP5]
doa10∆
  protein stability index: 2.54 ± 0.089
pdr5∆
  protein stability index: 2.65 ± 0.058
san1∆
  protein stability index: 2.34 ± 0.082
ubr1∆
  protein stability index: 2.56 ± 0.042

## RNNFLAENSHTQPKATS [PUP1]
doa10∆
  protein stability index: 3.14 ± 0.069
pdr5∆
  protein stability index: 3.1 ± 0.059
san1∆
  protein stability index: 3.06 ± 0.044
ubr1∆
  protein stability index: 3.13 ± 0.04

## ADKVYTKENLEVSGENV [QCR2]
doa10∆
  protein stability index: 3.44 ± 0.1
pdr5∆
  protein stability index: 3.59 ± 0.072
san1∆
  protein stability index: 3.2 ± 0.092
ubr1∆
  protein stability index: 3.28 ± 0.052

## YYEQFRPDLIKEDHPLE [SIR3]
doa10∆
  protein stability index: 2.68 ± 0.058
pdr5∆
  protein stability index: 2.73 ± 0.066
san1∆
  protein stability index: 3.02 ± 0.043
ubr1∆
  protein stability index: 2.67 ± 0.046

## QKKIQINKEMGELNSKL [SMC3]
pdr5∆
  protein stability index: 3.34 ± 0.21
ubr1∆
  protein stability index: 3.15 ± 0.13

## DNTVRTSANGIVQFTYG [RPO31]
doa10∆
  protein stability index: 2.67 ± 0.1
pdr5∆
  protein stability index: 2.76 ± 0.1
san1∆
  protein stability index: 2.25 ± 0.17
ubr1∆
  protein stability index: 2.53 ± 0.11

## SRMFEEVSGSIQYKKEY [SMC1]
doa10∆
  protein stability index: 3.09 ± 0.057
pdr5∆
  protein stability index: 2.02 ± 0.06
san1∆
  protein stability index: 2.37 ± 0.075
ubr1∆
  protein stability index: 3.21 ± 0.057

## VGKYDKAIELLEKALQG [SRP72]
pdr5∆
  protein stability index: 1.66 ± 0.17
ubr1∆
  protein stability index: 1.18 ± 0.22

## EMKTQAAELQEKPLTPL [SNF6]
doa10∆
  protein stability index: 2.97 ± 0.19
pdr5∆
  protein stability index: 3.14 ± 0.12
san1∆
  protein stability index: 2.8 ± 0.088
ubr1∆
  protein stability index: 2.89 ± 0.087

## MLNLIDDVKNILNAKYT [RPN6]
doa10∆
  protein stability index: 2.85 ± 0.18
pdr5∆
  protein stability index: 2.57 ± 0.09
san1∆
  protein stability index: 2.86 ± 0.061
ubr1∆
  protein stability index: 2.86 ± 0.068

## IEINEDNSQDDQDRGAA [RRI2]
doa10∆
  protein stability index: 3.24 ± 0.18
pdr5∆
  protein stability index: 3.28 ± 0.23
san1∆
  protein stability index: 3.12 ± 0.12
ubr1∆
  protein stability index: 3.04 ± 0.11

## IMDNDPVLFNRQPSLHK [RPO21]
doa10∆
  protein stability index: 1.77 ± 0.074
pdr5∆
  protein stability index: 2.17 ± 0.069
san1∆
  protein stability index: 2.26 ± 0.23
ubr1∆
  protein stability index: 1.84 ± 0.074

## GNVTELYGTAIGARSQG [PRE5]
doa10∆
  protein stability index: 2.11 ± 0.08
pdr5∆
  protein stability index: 2.09 ± 0.15
san1∆
  protein stability index: 1.94 ± 0.071
ubr1∆
  protein stability index: 1.31 ± 0.044

## NTVMLQGIFKNSSNYFG [AAR2]
doa10∆
  protein stability index: 2.21 ± 0.15
pdr5∆
  protein stability index: 1.29 ± 0.094
san1∆
  protein stability index: 2.15 ± 0.14
ubr1∆
  protein stability index: 1.46 ± 0.2

## LALQRGATVFVNHLLLF [DPB4]
doa10∆
  protein stability index: 1.42 ± 0.046
pdr5∆
  protein stability index: 1.26 ± 0.036
san1∆
  protein stability index: 1.25 ± 0.083
ubr1∆
  protein stability index: 1.34 ± 0.039

## TNFSPTPANNGENAAEK [SNF2]
doa10∆
  protein stability index: 2.42 ± 0.067
pdr5∆
  protein stability index: 2.77 ± 0.072
san1∆
  protein stability index: 2.21 ± 0.074
ubr1∆
  protein stability index: 2.81 ± 0.05
